B1: 7H3C11FW (antibody, V domains shown)
VH: QVQLVESGGGVVQPGRSLRLSCAASGFAFGSYTMHWVRQAPGKGLEWVTLISFDGRSKLYGDSVKGRFTISRDNSKNSLYLQMNSLRAEDTAVYYCARGSVRGEAAFDLWGQGTLVTVSS
VL: SYELTQPPSVSVSPGQTASITCSGDNLRTKYVSWYQQKPGQSPVLVIYQDTRRPSGIPERFSGSNSGNTATLTISGTQAMDEADYYCMTWDVDTTSMIFGGGTKLTVL

Biological target: 인간 IL-17A (human IL-17A, R&D system) (human, UniProt Q16552 20-155, limits assumed)
Experiment: cell-based or functional assay

Sequence of 인간 IL-17A (human IL-17A, R&D system) (Q16552 20-155 limits assumed): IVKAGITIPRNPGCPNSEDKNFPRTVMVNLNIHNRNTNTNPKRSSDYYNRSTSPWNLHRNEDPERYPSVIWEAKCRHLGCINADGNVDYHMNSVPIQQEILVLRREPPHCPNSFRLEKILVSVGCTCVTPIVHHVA

Row | Molecule | IC50 of inhibition of IL-17A-dependent IL-6 secretion, HeLa cells [nM] | fold better IC50 than secukinumab in-house, HeLa IL-6 assay [fold]
1 | 세쿠키누맙 (secukinumab), made in-house (antibody) | 4.16 | –
2 | B1 | 2.88 | ~1.4
